The text below walks through data of patent US11708423B2, “Chimeric engulfment receptor molecules and methods of use” (CERO THERAPEUTICS, INC., priority 2017, dated 2023).

Type in all cases: cell-based
One assay has as its system ALK+A549 cells. Description: LDH cytotoxicity assay, A549 ALK+ cells, 18 hours co-culture. Conditions: Crizotinib or Alectinib 0, 2500, 3700 nM; E:T 2:1 or 5:1; 18 hours. On the procedure:
An ELM4-ALK translocation was introduced into A549 cells. […] Assays were performed with purified tEGFR^+ (transduction marker), CER-expressing T cells 7 days after activation using CD3 & CD28 microbeads at effector: target cell ratios of 2:1 or 5:1. Mock T cells were transduced with vector alone and used as control. After 18 hours of co-culture, bulk supernatants were evaluated using a LDH cytoxicity assay indicating cell killing (FIGS. 65A-B).

In assay [1] the test system is A549 cells introduced with an ELM4-ALK translocation. Description: Interferon Gamma secretion, A549 ALK+ co-culture. Conditions: Crizotinib (3700 nM) or Alectinib (3700 nM), 18 hours, E:T 2:1 and 5:1. On the procedure:
After 18 hours of co-culture, bulk supernatants were evaluated for Interferon Gamma secretion (FIGS. 66A-B). Assays were performed using purified, tEGFR^+ (transduction marker), CER-expressing T cells 7 days after activation using CD3 & CD28 microbeads at effector: target ratios of (2:1 & 5:1). Control “Mock” T cells were transduced with vector alone.

In assay [2] the test system is HCC159 lung adenocarcinoma cells. In words: LDH-based cytotoxicity, HCC159 cells. The settings on record: Osimeritinib 0, 1, 5 nM; E:T 2:1 or 5:1; 18 hours. On the procedure:
HCC159 lung adenocarcinoma cells were co-cultured with CER123- or CER126-expressing CD4+ T cells with increasing concentrations of Osimeritnib (0, 1 nM, 5 nM). After 18 hours of co-culture, bulk supernatants were evaluated using a LDH-based cytotoxicity assay. T cells assays were performed using purified, EGFR^+ (transduction marker), CER modified T cells 7 days after activation using CD3 & CD28 microbeads at effector:target cell ratios of 2:1 or 5:1. Control “Mock” T cells were transduced with vector alone. […] Bulk supernatants were also analyzed after 18 hours of co-culture for Interferon Gamma (IFNγ) secretion (FIG. 50). Control “Mock” T cells were transduced with vector alone.

B1: CER123: Tim4 binding and transmembrane domains, TLR2 primary and TRAF6 secondary signaling domains; SEQ ID NO:150 (protein)
chain: MSKGLLLLWLVTELWWLYLTPAASEDTIIGFLGQPVTLPCHYLSWSQSRNSMCWGKGSCPNSKCNAELLRTDGTRIISRKSTKYTLLGKVQFGEVSLTISNTNRGDSGVYCCRIEVPGWFNDVKKNVRLELRRATTTKKPTTTTRPTTTPYVTTTTPELLPTTVMTTSVLPTTTPPQTLATTAFSTAVTTCPSTTPGSFSQETTKGSAFTTESETLPASNHSQRSMMTISTDIAVLRPTGSNPGILPSTSQLTTQKTTLTTSESLQKTTKSHQINSRQTILIIACCVGFVLMVLLFLAFLHRFHGLWYMKMMWAWLQAKRKPRKAPSRNICYDAFVSYSERDAYWVENLMVQELENFNPPFKLCLHKRDFIPGKWIIDNIIDSIEKSHKTVFVLSENFVKSEWCKYELDFSHFRLFDENNDAAILILLEPIEKKAIPQRFCKLRKIMNTKTYLEWPMDEAQREGFWVNLRAAIKSMSLLNCENSCGSSQSESDCCVAMASSCSAVTKDDSVGGTASTGNLSSSFMEEIQGYDVEFDPPLESKYECPICLMALREAVQTPCGHRFCKACIIKSIRDAGHKCPVDNEILLENQLFPDNFAKREILSLMVKCPNEGCLHKMELRHLEDHQAHCEFALMDCPQCQRPFQKFHINIHILKDCPRRQVSCDNCAASMAFEDKEIHDQNCPLANVICEYCNTILIREQMPNHYDLDCPTAPIPCTFSTFGCHEKMQRNHLARHLQENTQSHMRMLA
modifications: CER123 protein
As for B1, in the assay on ALK+A549 cells, the “cell killing of A549 ALK+ cells (LDH)” value is “dose-dependent inducible cytokine secretion and cell killing responses”. The “Interferon Gamma secretion” value in assay [1] is on record as “dose-dependent inducible cytokine secretion”. Further, in assay [2], the “cell killing of HCC159 cells (LDH)” value is reported as “inducible cell killing responses”.
